Paper PMC6030175, “A senataxin-associated exonuclease SAN1 is required for resistance to DNA interstrand cross-links”

Molecular target: T1, SAN1 D90A (catalytically inactive) (mouse or human ( for the …, UniProt Q6RI63 1-786, D90A))
T1 sequence: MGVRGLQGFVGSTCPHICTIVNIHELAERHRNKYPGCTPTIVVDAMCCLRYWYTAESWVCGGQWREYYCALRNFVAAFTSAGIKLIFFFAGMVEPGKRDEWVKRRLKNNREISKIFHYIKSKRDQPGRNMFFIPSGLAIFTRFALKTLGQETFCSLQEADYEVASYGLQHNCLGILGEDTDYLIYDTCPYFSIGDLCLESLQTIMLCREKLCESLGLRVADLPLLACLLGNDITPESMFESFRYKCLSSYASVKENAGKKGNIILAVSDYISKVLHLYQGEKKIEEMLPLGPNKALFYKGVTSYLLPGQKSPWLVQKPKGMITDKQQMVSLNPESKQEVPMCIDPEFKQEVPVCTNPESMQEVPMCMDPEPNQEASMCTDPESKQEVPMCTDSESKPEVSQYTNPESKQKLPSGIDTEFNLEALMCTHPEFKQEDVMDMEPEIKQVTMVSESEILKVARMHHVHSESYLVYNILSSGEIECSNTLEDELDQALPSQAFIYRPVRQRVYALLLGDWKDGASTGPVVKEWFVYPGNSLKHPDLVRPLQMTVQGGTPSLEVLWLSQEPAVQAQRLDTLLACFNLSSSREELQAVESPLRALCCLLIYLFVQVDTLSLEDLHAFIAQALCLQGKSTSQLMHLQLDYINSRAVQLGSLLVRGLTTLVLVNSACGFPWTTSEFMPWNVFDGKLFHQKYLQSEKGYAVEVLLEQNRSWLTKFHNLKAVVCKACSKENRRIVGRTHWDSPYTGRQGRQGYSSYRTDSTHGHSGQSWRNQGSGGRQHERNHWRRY
Experiment: EMSA; 5 mM Mg2+; protein 0, 1, 5, 10, 20 nM; DNA 1 nM; EMSA: 20 mM HEPES pH 7.4, 0.1% NP-40, 0.1 M KCl, 5 mM MgCl2, 1% glycerol, 0.25 ug/uL BSA, 1 mM DTT, 30 min, room temperature; 5% native gel, 0.5x TBE
Conditions: protein: recombinant; tags: Strep-tag II (murine, C-terminal) or Strep-FLAG (human); label: 5' 32P; single strand 50 nt

B1: X4 (ssDNA)
DNA: AACGTCATAGACGATTACATTGCTAGGACATCTTTGCCCACGTTGACCCA
- binding result: binds
